Experimental data as given in article PMC5758563, “Structural analysis of mtEXO mitochondrial RNA degradosome reveals tight coupling of nuclease and helicase components”.

Target: Cg-Dss1 (full-length, wild type) (Candida glabrata, UniProt Q6FJE0 24-923)
Assay: footprinting (RNase I protection); 2 mM ATP, 3 mM MgCl2; RNase I footprinting: 100 nM RNA, 150 nM protein, 20 mM Tris pH 7.4, 50 mM NaCl, 3 mM MgCl2, with or without 2 mM ATP, 30 C; EDTA added before RNase I. Crystal
Conditions: protein: recombinant; tags: His6-MBP removed by TEV; label: 32P body label

B1: L1 RNA (79 nt) (structured_RNA)
RNA: GGAACUCCAUAUAUGGGCUAUGAACUAAUGACCCCGUAAUUGAUUACUAUUAGCCCGGGCAAUGUGCACAUGUACCCUA
- binding result: binds
